Data published in US20240116985A1 (published 2024).
Starred links: 1 amine or outer side, 2 acyl side, 3 side chain; linkers in the order of their positions; H or OH if unused. Positions of bridges follow the written chain, without caps; N, C: chain ends. Non-standard residues stand in square brackets, D forms with d. Primed or numbered codes have the meaning given here. B5(17) = 2,2-bis(4-pentenyl)glycine = 2-amino-2-(pent-4-en-1-yl)hept-6-enoic acid, stitching residue, C=CCCCC(CCCC=C)(N[*:1])C(=O)[*:2]; B5(4) = 2,2-bis(4-pentenyl)glycine = 2-amino-2-(pent-4-en-1-yl)hept-6-enoic acid (stitching residue), C=CCCCC(CCCC=C)(N[*:1])C(=O)[*:2]; B5(5) = 2,2-bis(4-pentenyl)glycine, 2-amino-2-(pent-4-en-1-yl)hept-6-enoic acid (stitching residue), C=CCCCC(CCCC=C)(N[*:1])C(=O)[*:2]; B5(21) = 2-amino-2-(pent-4-en-1-yl)hept-6-enoic acid, bis(4-pentenyl)glycine (stitching residue), C=CCCCC(CCCC=C)(N[*:1])C(=O)[*:2]; (NHCyPr)AsnR = N4-cyclopropyl-L-asparagine, O=C(C[C@H](N[*:1])C(=O)[*:2])NC1CC1; (NHnPr)AsnR = N4-propyl-L-asparagine, CCCNC(=O)C[C@H](N[*:1])C(=O)[*:2]; Ala(2-furyl) = N[C@@H](Cc1ccco1)C(=O)O; Bta = N[C@@H](Cc1csc2ccccc12)C(=O)O; αAllylPro = C=CC[C@@]1(C(=O)O)CCCN1; S8 = C=CCCCCCC[C@](C)(N)C(=O)O

T1: full-length beta-Catenin (Uniprot ID P35222) (Homo sapiens (Human), UniProt P35222 1-781)
T1 construct: also called bCat; B-Catenin
T1 sequence: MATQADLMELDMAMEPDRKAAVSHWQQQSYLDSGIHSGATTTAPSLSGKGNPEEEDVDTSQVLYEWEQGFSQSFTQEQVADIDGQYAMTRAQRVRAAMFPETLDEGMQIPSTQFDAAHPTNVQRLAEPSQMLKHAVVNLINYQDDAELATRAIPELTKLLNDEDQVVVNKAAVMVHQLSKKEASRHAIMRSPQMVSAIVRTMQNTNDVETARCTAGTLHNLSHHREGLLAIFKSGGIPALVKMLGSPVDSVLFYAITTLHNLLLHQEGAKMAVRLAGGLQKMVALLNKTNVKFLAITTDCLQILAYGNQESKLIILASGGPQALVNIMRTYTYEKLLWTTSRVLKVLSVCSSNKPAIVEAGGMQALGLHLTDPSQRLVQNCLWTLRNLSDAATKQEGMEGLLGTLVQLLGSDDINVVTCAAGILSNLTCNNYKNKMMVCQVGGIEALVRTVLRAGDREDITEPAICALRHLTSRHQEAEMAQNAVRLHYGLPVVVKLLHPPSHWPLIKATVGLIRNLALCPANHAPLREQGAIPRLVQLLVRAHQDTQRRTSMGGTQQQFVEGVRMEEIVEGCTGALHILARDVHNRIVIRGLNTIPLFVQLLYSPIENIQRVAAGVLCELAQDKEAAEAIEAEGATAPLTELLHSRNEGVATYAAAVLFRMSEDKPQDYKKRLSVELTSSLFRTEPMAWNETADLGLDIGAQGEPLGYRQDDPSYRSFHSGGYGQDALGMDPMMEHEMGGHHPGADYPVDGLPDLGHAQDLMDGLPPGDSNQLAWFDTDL

T2: full-length beta-Catenin (Uniprot ID P35222) (Homo sapiens (Human), UniProt P35222 1-781)
T2 construct: also called bCat; B-Catenin
T2 sequence: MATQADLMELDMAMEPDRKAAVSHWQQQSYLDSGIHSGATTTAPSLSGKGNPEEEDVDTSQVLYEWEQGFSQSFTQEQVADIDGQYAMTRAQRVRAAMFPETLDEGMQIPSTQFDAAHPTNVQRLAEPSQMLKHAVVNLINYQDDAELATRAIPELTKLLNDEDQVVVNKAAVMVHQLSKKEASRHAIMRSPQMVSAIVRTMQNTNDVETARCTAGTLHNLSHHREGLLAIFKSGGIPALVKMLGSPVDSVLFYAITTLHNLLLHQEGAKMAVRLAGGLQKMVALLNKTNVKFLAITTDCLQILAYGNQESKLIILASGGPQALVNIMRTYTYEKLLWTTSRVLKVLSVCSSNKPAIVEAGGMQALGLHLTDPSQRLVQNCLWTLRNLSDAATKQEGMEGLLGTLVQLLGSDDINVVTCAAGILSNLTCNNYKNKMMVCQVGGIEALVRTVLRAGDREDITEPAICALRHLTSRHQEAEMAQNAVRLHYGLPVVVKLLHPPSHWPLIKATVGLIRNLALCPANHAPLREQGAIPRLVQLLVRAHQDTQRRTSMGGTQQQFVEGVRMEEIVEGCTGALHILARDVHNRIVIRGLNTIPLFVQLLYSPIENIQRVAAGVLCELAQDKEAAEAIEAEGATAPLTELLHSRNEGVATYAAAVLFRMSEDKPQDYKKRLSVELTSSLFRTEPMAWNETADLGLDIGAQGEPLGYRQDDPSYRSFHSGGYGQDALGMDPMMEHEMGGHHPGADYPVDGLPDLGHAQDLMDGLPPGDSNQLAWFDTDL


target: T1, full-length beta-Catenin (Uniprot ID …); assay: fluorescence polarization competition vs 5FAM-TCF4(10-53) on full-length beta-catenin
Method: (§1) The plate was incubated protected from light for 60 minutes at 20° C. prior to read. Reads were performed on a CLARIOstar plate reader (BMG Labtech) in duplicate, and data were fitted to a 1:1 binding model with hill slope using an in-house script. All provided concentrations are final concentrations.

IC50 | Binder
4720 nM | Ac-[αAllylPro]DA[B5(4)]DDAA[Ala(2-furyl)]V[S8]FWQ-NH2 (staple 1-4, 4-11; not fully specified; printed as Ac-PL3-Asp-Ala-B5-Asp-Asp-Ala-Ala-2FurA-Val-S8-Phe-Trp-Gln-NH2, Stapled peptide composition; also called Ac-PL3-Asp-Ala-B5-Asp-Asp-Ala-Ala-2FurA-Val-S8-Phe-Trp-Gln-NH2) [I-327]
1910 nM | Ac-[αAllylPro]DA[B5(4)]DDAA[Ala(2-furyl)]V[S8]FWQ-NH2 (staple 1-4, 4-11; not fully specified; printed as Ac-PL3-Asp-Ala-B5-Asp-Asp-Ala-Ala-2FurA-Val-S8-Phe-Trp-Gln-NH2, Stapled peptide composition; also called Ac-PL3-Asp-Ala-B5-Asp-Asp-Ala-Ala-2FurA-Val-S8-Phe-Trp-Gln-NH2) [I-328]

target: T2, full-length beta-Catenin (Uniprot ID …); assay: fluorescence polarization competition; displacement of 5FAM-TCF4(10-53) from full-length beta-catenin
Method: as §1

EC50 | Binder
51 nM | Ac-[αAllylPro]DL[B5(5)]DDAAFN[S8]F[Bta]Q-NH2 (staple 1-4, 4-11) [I-562]
32 nM | Ac-[αAllylPro]DL[B5(4)]DEAAFN[S8]F[Bta]H-NH2 (staple 1-4, 4-11, Stapled (stitched) peptide composition) [I-543]
71 nM | XDIXDDAAFNXFXQ (not fully specified; Ac-PL3-Asp-Ile-B5-Asp-Asp-Ala-Ala-Phe-Asn-S8-2OMeF-BztA-Gln-NH2; N-terminal acetyl, C-terminal amide; non-natural: PL3(1), B5(4), S8(11), 2OMeF(12), BztA(13); staples PL3(1)-B5(4) and B5(4)-S8(11)) [I-549]
30 nM | XDIXDDAAFNXFXQ (not fully specified; Ac-PL3-Asp-Ile-B5-Asp-Asp-Ala-Ala-Phe-Asn-S8-2OMeF-BztA-Gln-NH2; N-terminal acetyl, C-terminal amide; non-natural: PL3(1), B5(4), S8(11), 2OMeF(12), BztA(13); staples PL3(1)-B5(4) and B5(4)-S8(11)) [I-550]
61 nM | XDIXDDAAFNXFXH (not fully specified; Ac-PL3-Asp-Ile-B5-Asp-Asp-Ala-Ala-Phe-Asn-S8-2OMeF-BztA-His-NH2; N-terminal acetyl, C-terminal amide; non-natural: PL3(1), B5(4), S8(11), 2OMeF(12), BztA(13); staples PL3(1)-B5(4) and B5(4)-S8(11)) [I-553]
27.5 nM | XDIXDDAAFNXFXH (not fully specified; Ac-PL3-Asp-Ile-B5-Asp-Asp-Ala-Ala-Phe-Asn-S8-2OMeF-BztA-His-NH2; N-terminal acetyl, C-terminal amide; non-natural: PL3(1), B5(4), S8(11), 2OMeF(12), BztA(13); staples PL3(1)-B5(4) and B5(4)-S8(11)) [I-554]
35 nM | Ac-[αAllylPro]DI[B5(17)]DEAAFN[S8]F[Bta]Q-NH2 (staple 1-4, 4-11, Stapled (stitched) peptide composition) [I-557]
56 nM | XDLXDDAAFQXFXQ (not fully specified; Ac-PL3-Asp-Leu-B5-Asp-Asp-Ala-Ala-Phe-Gln-S8-Phe-BztA-Gln-NH2; N-terminal acetyl, C-terminal amide; non-natural: PL3(1), B5(4), S8(11), BztA(13); staples PL3(1)-B5(4) and B5(4)-S8(11)) [I-558]
43 nM | XDLXDDAAFQXFXQ (not fully specified; Ac-PL3-Asp-Leu-B5-Asp-Asp-Ala-Ala-Phe-Gln-S8-Phe-BztA-Gln-NH2; N-terminal acetyl, C-terminal amide; non-natural: PL3(1), B5(4), S8(11), BztA(13); staples PL3(1)-B5(4) and B5(4)-S8(11)) [I-559]
81 nM | Ac-[αAllylPro]DL[B5(5)]DDAAFQ[S8]F[Bta]H-NH2 (staple 1-4, 4-11) [I-560]
34 nM | XDLXDDAAFQXFXH (not fully specified; Ac-PL3-Asp-Leu-B5-Asp-Asp-Ala-Ala-Phe-Gln-S8-Phe-BztA-His-NH2; N-terminal acetyl, C-terminal amide; non-natural: PL3(1), B5(4), S8(11), BztA(13); staples PL3(1)-B5(4) and B5(4)-S8(11)) [I-561]
36 nM | Ac-[αAllylPro]DL[B5(5)]DDAAFN[S8]F[Bta]H-NH2 (staple 1-4, 4-11) [I-564]
13 nM | XDLXDDAAFNXFXH (not fully specified; Ac-PL3-Asp-Leu-B5-Asp-Asp-Ala-Ala-Phe-Asn-S8-Phe-BztA-His-NH2; N-terminal acetyl, C-terminal amide; non-natural: PL3(1), B5(4), S8(11), BztA(13); staples PL3(1)-B5(4) and B5(4)-S8(11)) [I-565]
76 nM | XDVXDDAAFNXFXQ (not fully specified; Ac-PL3-Asp-Val-B5-Asp-Asp-Ala-Ala-Phe-Asn-S8-Phe-BztA-Gln-NH2; N-terminal acetyl, C-terminal amide; non-natural: PL3(1), B5(4), S8(11), BztA(13); staples PL3(1)-B5(4) and B5(4)-S8(11)) [I-566]
5000 nM | Ac-[αAllylPro]DA[B5(21)][(NHnPr)AsnR]DAAFV[S8]F[Bta]Q-NH2 (staple 1-4, 4-11, Stapled (stitched) peptide composition) [I-537]
5000 nM | Ac-[αAllylPro]DA[B5(21)][(NHCyPr)AsnR]DAAFV[S8]F[Bta]Q-NH2 (staple 1-4, 4-11, Stapled (stitched) peptide composition) [I-538]
